Test results reported in article PMC4958977, “Revisiting the mechanism of coagulation factor XIII activation and regulation from a structure/functional perspective” (Scientific Reports, 2016).

Biological target: the molecule itself
Assay: SEC; 25 ug purified FXIIIA2B2 incubated with 46.2 U/mL thrombin and 25 mM CaCl2, 20 mM Tris, 120 mM NaCl, pH 7.4, 60 minutes at 30 degrees; Superdex 200 PC 3.2/30; peaks checked by native PAGE and mass spectrometry

B1: coagulation factor XIII B subunit (natural protein, human, UniProt P05160 21-661, looked up)
chain: EEKPCGFPHVENGRIAQYYYTFKSFYFPMSIDKKLSFFCLAGYTTESGRQEEQTTCTTEGWSPEPRCFKKCTKPDLSNGYISDVKLLYKIQENMRYGCASGYKTTGGKDEEVVQCLSDGWSSQPTCRKEHETCLAPELYNGNYSTTQKTFKVKDKVQYECATGYYTAGGKKTEEVECLTYGWSLTPKCTKLKCSSLRLIENGYFHPVKQTYEEGDVVQFFCHENYYLSGSDLIQCYNFGWYPESPVCEGRRNRCPPPPLPINSKIQTHSTTYRHGEIVHIECELNFEIHGSAEIRCEDGKWTEPPKCIEGQEKVACEEPPFIENGAANLHSKIYYNGDKVTYACKSGYLLHGSNEITCNRGKWTLPPECVENNENCKHPPVVMNGAVADGILASYATGSSVEYRCNEYYLLRGSKISRCEQGKWSSPPVCLEPCTVNVDYMNRNNIEMKWKYEGKVLHGDLIDFVCKQGYDLSPLTPLSELSVQCNRGEVKYPLCTRKESKGMCTSPPLIKHGVIISSTVDTYENGSSVEYRCFDHHFLEGSREAYCLDGMWTTPPLCLEPCTLSFTEMEKNNLLLKWDFDNRPHILHGEYIEFICRGDTYPAELYITGSILRMQCDRGQLKYPRCIPRQSTLSYQEPLRT
notes: human coagulation factor XIII B subunit from plasma, ten Sushi domains; 80 kDa; also called FXIIIB; FXIIIB2; source: purified as FXIIIA2B2 from plasma concentrate Fibrogammin P (CSL Behring), gel filtration on Superdex 200
- binding result: binds
